Assay [1] has as its target Muc1 mucin bearing the CA6 sialoglycotope (DS6 antigen), as expressed by CA6-positive human tumour cell lines (human) (UniProt P15941). Nature of the assay: flow cytometry on HeLa cells. (Flow cytometry measures light scatter and fluorescence of single cells or particles in a stream.)
The target is the same in assay [2]. The experiment in a line: flow cytometry on BT549 cells.
The target is the same in assay [3]. Nature of the assay: flow cytometry on KB cells.
Assay [4] shares this target. Nature of the assay: flow cytometry on MCF7 cells.
The target is the same in assay [5]. Nature of the assay: flow cytometry on CaOV3 cells.

The results in this text go back to patent US20110064733A1.

On to CM1 antibody (Muc1 VNTR antibody), for which the MMF (maximum mean relative fluorescence) (relative fluorescence) is 335 in assay [1]; 188 in assay [2]; 338 in assay [3]; 1020 in assay [4]; 1030 in assay [5].
